According to patent US12338268B2, “Compositions and methods for treating protein aggregation-associated diseases” (The Board of Trustees of the Leland Stanford Junior …, priority 2019, dated 2025):

What was measured:
[1] = molecular target: T1, mutant Huntingtin exon 1 (mHttQ51) (Homo sapiens, UniProt P42858, INS38QQQQQQQQQQQQQQQQQQQQQQQQQQQQQQQ); assay: In vitro filter trap aggregation assay of mutant Huntingtin exon 1; format: biochemical
T1 construct: mutant Huntingtin exon 1 containing a pathogenic stretch of 51 glutamines (mHttQ51); GST (N, cleaved yes); made in house; host or cells: E. coli Rosetta 2(DE3) pLysS
T1 sequence (P42858 with tags, fused parts or gaps with the stated changes limits assumed): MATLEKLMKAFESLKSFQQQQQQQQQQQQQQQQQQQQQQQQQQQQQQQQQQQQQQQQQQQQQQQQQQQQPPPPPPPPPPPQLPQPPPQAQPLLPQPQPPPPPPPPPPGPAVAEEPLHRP
Procedure: Mutant Huntingtin and PolyQ51 aggregation reactions were performed at concentration 3 μM of mHttQ51, 0.044 Units/μl acTEV protease (Invitrogen, Carlsbad, CA, USA), and respective concentrations of Ovalbumin (Sigma) or purified NAC chaperone variants. Aggregation was conducted in TEV reaction buffer (Invitrogen) and incubated at 30° C. AtxQ78 was buffer exchanged into TEV reaction buffer using 7K MWCO Zeba Spin Desalting Columns (Thermo Fisher) to initiate aggregation. AtxQ78 aggregation reactions were performed at 30 μM of Ataxin-3 in reaction buffer (20 mM sodium phosphate pH 7.5, 25 mM NaCl, 6 mM MgCl2, 2 mM DTT, 5% (v/v) glycerol) and incubated at 37° C. Samples at varied time-points were then taken and combined in a 1:1 ratio with a 4% (w/v) SDS, 100 mM DTT solution, boiled for 5 min at 95° C., and stored at −20° C. Samples were then filtered through a 0.22 μm cellulose acetate membrane (Whatman) and washed with 0.1% (w/v) SDS. Membrane was probed using an S-tag antibody (Abcam) for mHttQ51 and PolyQ51, and with a His-tag antibody (Abcam) for AtxQ78.

Aβ40 = molecular target: T2, Aβ40 (Homo sapiens, UniProt P05067); assay: Chemical crosslinking (BS3) and mass spectrometry of NAC-Aβ40 complexes; format: binding; conditions: NAC and Aβ40 both 18 μM, 37° C. 2 h
T2 construct: Aβ40 peptide was expressed and purified as described previously; made in house; host or cells: E. coli BL21 (DE3)
Procedure: Aβ40 (18 μM) was incubated with purified NAC in a 1:1 molar ratio in Aβ aggregation buffer (20 mM sodium phosphate pH 7.5, 0.2 mM EDTA, 0.01% (w/v) NaN3) at 37° C. for 2 h. BS^3-h^12d^12 was added to the proteins at 20× molar excess and incubated for 30 min at 37° C. before quenching with 50 mM NH4HCO3. Crosslinked samples were gel-filtrated using a Superdex 75 column (GE Healthcare) and fractions containing crosslinked Aβ40-NAC complexes subjected to co-immunoprecipitation using Aβ antibody 6E10 (Biozol). Captured proteins were denatured with 1×SDS sample buffer under non-reducing conditions to avoid splitting of the antibody in heavy and light chains.
Gel pieces containing the crosslinked complexes were washed with 25 mM ammonium bicarbonate (pH 7.8) for 1 h with shaking. The solution was removed and the pieces destained three times with 25 mM ammonium bicarbonate in 60% acetonitrile. Gel pieces were dehydrated with 100% acetonitrile for 10 min and left to air-dry in a laminar flowhood for 1 h. Rehydration of the gel pieces was achieved by adding 0.1 mg/ml trypsin solution and incubating the samples on ice for 30 min. Excess trypsin was removed and the samples were incubated at 37° C. and 1000 rpm overnight. […] The extracts were pooled and concentrated using a SpeedVac before being analyzed using a nanoACQUITY LC-system coupled to a Synapt HDMS G2Si mass spectrometer. […]

[2] = system: PolyQ35::YFP C. elegans worms; assay: Paralysis assay; format: in vivo; conditions: overexpression; day 6 to 10 of adulthood
Procedure: To analyze the percentage of paralyzed worms, 100 semi-synchronized (timed egg lay for 5 h) young adult worms of each strain were placed on a plate containing 150 μM 5-fluorodeoxyuridine. Screening of paralyzed worms was started at day 6 of adulthood.

α-synuclein = α-synuclein (Homo sapiens, UniProt P37840); conditions: Martin et al., 2018; cited from earlier work

B1: NAC: nascent polypeptide-associated complex, heterodimer of αNAC and βNAC; species not given at the place (C. elegans icd-1/icd-2 when overexpressed in worms) (protein)
chain 1: MTGSTETRQKEVKEPQVDVSDDSDNEAVEQELTEEQRRVAEAAGLGDHIDKQAKQSRSEKKARKLFSKLGLKQVTGVSRVCIRKSKNILFVINKPDVFKSPGSDTYIIFGEAKIEDLTQHAQMSAIENLKPTREAPQLKTVEEDENEDVEEDSTGIEEKDIELVISQANTTRNKAIRALKEADNDIVNAIMSLTM
chain 2: MMDSKAIAERIKKLQAQQEHVRIGGKGTPRRKKKVIHKTAAADDKKLQSNLKKLSVTNIPGIEEVNMIKDDGTVIHFNNPKVQTSVPANTFSVTGSADNKQITEMLPGILNQLGPESLTHLKKLANNVTKLGPDGKGEDEDVPELVGDFDAASKNETKADEQ
[1]; 1×, 5× or 10× molar excess of human NAC
  concentration dependence of mHttQ51 aggregation suppression: concentration dependent
[1]; 6-hour time delay between initiation of aggregation and addition, 5× molar excess
  disaggregation of preformed mHttQ51 aggregates: did not disaggregate preformed mHttQ51 aggregates
Aβ40
  interaction with Aβ40 (crosslinking-MS): interaction of Aβ40 with the N-terminal domains of NAC
[2]
  motility / age-associated paralysis of PolyQ35::YFP-expressing worms: significantly improves motility
α-synuclein
  aggregation of α-synuclein: suppresses aggregation
